In patent US20040248211A1, “ICAM-related protein” (priority 1992, published 2004):
Positions count from the first letter of the chain named. In names and notes the source's numbering stands.

T1: ICAM-R (Homo sapiens, UniProt P32942)
T1 construct: express the full length ICAM-1 and ICAM-R proteins, respectively; expressed in transfected cells; host or cells: COS cells, DEAE-dextran, plasmid pcDNA1AmpICAM-R
T1 sequence (P32942 30-547): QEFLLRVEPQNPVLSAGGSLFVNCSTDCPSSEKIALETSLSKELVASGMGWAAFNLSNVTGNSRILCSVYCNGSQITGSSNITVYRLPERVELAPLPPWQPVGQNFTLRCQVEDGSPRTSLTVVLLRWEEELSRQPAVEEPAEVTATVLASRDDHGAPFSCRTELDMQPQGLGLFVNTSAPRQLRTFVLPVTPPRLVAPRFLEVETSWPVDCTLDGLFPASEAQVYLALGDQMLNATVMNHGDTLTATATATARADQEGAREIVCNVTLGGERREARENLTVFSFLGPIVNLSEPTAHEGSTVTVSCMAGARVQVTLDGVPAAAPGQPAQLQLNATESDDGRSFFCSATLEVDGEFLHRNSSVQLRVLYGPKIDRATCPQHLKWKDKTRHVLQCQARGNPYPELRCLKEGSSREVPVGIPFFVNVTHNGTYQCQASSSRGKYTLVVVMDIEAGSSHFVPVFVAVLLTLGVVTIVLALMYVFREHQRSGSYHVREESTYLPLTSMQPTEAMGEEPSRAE

B1: shICAM-R: soluble human ICAM-R truncated at amino acid 457, baculovirus expressed (protein)
chain: QEFLLRVEPQNPVLSAGGSLFVNCSTDCPSSEKIALETSLSKELVASGMGWAAFNLSNVTGNSRILCSVYCNGSQITGSSNITVYGLPERVELAPLPPWQPVGQNFTLRCQVEGGSPRTSLTVVLLRWEEELSRQPAVEEPAEVTATVLASRDDHGAPFSCRTELDMQPQGLGLFVNTSAPRQLRTFVLPVTPPRLVAPRFLEVETSWPVDCTLDGLFPASEAQVYLALGDQMLNATVMNHGDTLTATATATARADQEGAREIVCNVTLGGERREARENLTVFSFLGPIVNLSEPTAHEGSTVTVSCMAGARVQVTLDGVPAAAPGQTAQLQLNATESDDGRSFFCSATLEVDGEFLHRNSSVQLRVLYGPKIDRATCPQHLKWKDKTRHVLQCQARGNPYPELRCLKEGSSREVPVGIPFFVNVTHNGTYQCQASSSRGKYTLVVVMDIEAFSSH
B2: D231H-Ig: ICAM-R/IgG variant with reduced VLA-4 binding, full LFA-1 binding (protein)
chain: B1 chain with D231H
modifications: left off: a dimerising Fc or GST
B3: E37T-Ig: ICAM-R/IgG variant which binds VLA-4 but not LFA-1 (protein)
chain: B1 chain with E37A, T38S
modifications: left off: a dimerising Fc or GST
B4: miHu/VHI/HuVK: ICR-8.1 miHuVHI (Val2 to Ile2) heavy chain with humanized VK (antibody, V domains shown)
VH: QIQLVQSGAEVKKPGASVKVSCKASGYTFTDCIILWVRQAPGQGLEWMGKINPYFGTTTYAQKFQGRVTITADTSTSTAYMELSSLRSEDTAVYYCARKEAYPDAMDYWGQGTLVTVSS
VL: DIVMTQSPLSLPVTPGEPASISCRSSQSLVHSNGDTYLHWYLQKPGQSPQLLIYKVSNRFSGVPDRFSGSGSGTDFTLKISRVEAEDVGVYYCSQSTHVPYTFGQGTKVEIK
B5: VCAM-1/IgG: soluble VCAM-1 IgG1 chimeric fusion protein (protein)
chain: FKIETTPESRYLAQIGDSVSLTCSTTGCESPFFSWRTQIDSPLNGKVTNEGTTSTLTMNPVSFGNEHSYLCTATCESRKLEKGIQVEIYSFPKDPEIHLSGPLEAGKPITVKCSVADVYPFDRLEIDLLKGDHLMKSQEFLEDADRKSLETKSLEVTFTPVIEDIGKVLVCRAKLHIDEMDSVPTVRQAVKELQVYISPKNTVISVNPSTKLQEGGSVTMTCSSEGLPAPEIFWSKKLDNGNLQHLSGNATLTLIAMRMEDSGIYVCEGVNLIGKNRKEVELIVQEKPFTVEISPGPRIAAQIGDSVMLTCSVMGCESPSFSWRTQIDSPLSGKVRSEGTNSTLTLSPVSFENEHSYLCTVTCGHKKLEKGIQVELYSFPRDPEIEMSGGLVNGSSVTVSCKVPSVYPLDRLEIELLKGETILENIEFLEDTDMKSLENKSLEMTFIPTIEDTGKALVCQAKLHIDDMEFEPKQRQSTQTLYVNVAPRDTTVLVSPSSILEEGSSVNMTCLSQGFPAPKILWSRQLPNGELQPLSENATLTLISTKMEDSGVYLCEGINQAGRSRKEVELIIQVTPKDIKLTAFPSESVKEGDTVIISCTCGNVPETWIILKKKAETGDTVLKSIDGAYTIRKAQLKDAGVYECESKNKVGSQLRSLTLDVQGRENNKDYFSPE
modifications: left off: a dimerising Fc or GST
notes: soluble VCAM-1 IgG1 chimeric fusion protein

What was measured:
[1] = tested on: SKW3 cells; assay: Adhesion of PMA-activated SKW3 cells to plate-bound protein; type: cell-based, human; conditions: PMA-treated cells
Description: The partially purified shICAM-R protein was assayed for binding to SKW3 cells that were pretreated with phorbol ester as described in Example 7 to activate LFA-1-dependent adhesion. The ICAM-R protein was coated onto 96-well Immulon 4 (Dynatech) plates after adjusting the lectin eluate to 25 mM carbonate pH 9.6 and incubated overnight at 4° C. The plates were washed two times with PBS, blocked for 30 minutes at 37° C. with 200 ul/well PBS, 1% BSA, and washed again with PBS before adding cells. SKW3 cells were washed in serum-free RPMI (Gibco), labelled with Calcein-AM (Molecular Probes), and stimulated with PMA. Cells were then added to the plates and incubated for 1 hour at 37° C. The plates were inverted in prewarmed PBS, 1% BSA and were incubated for 30 minutes. The plates were then removed and half of the contents of each well was aspriated. The plates were then scanned with a fluorescence microscope and an automated fluorescence reader.
Peak fractions from wtHis6, E37His6 and mock transfectants were concentrated about 6.5 fold using Centricon 30 (Amicon) centrifugation units. The resultant concentrates were adjusted to equal vols. (0.34 ml) using PBS-D. Control soluble ICAM-R (15 ug/ml) (Example 9) in carbonate buffer pH 9.6 or in buffer D with 40 mM imidazole were made up. […]

[2] = tested on: Human peripheral blood lymphocytes; assay: Costimulation of lymphocytes by soluble ICAM-R; type: cell-based
Description: shICAM-R (Example 9) was assayed for the ability to costimulate human lymphocyte activation. Human peripheral blood lymphocytes (PBL) were obtained by Ficoll-Hypaque centrifugation and 2×10^5 cells per well were incubated in the presence of either media, plate bound shICAM-R, plate bound anti-CD3 (OKT3) or a combination of plate bound anti-CD3 and shICAM-R. At 17 hours and 4 days after initiation of culture cells were removed, stained with monoclonal antibodies to human lymphocyte activation antigens and analyzed by flow cytometry.

[3] = tested on: T cells; assay: IL-2 production in response to anti-CD3 and ICAM-R proteins; type: cell-based, human; conditions: in comparison to the HSA control
[4] = tested on: T cells; assay: T-cell proliferation in response to CD3 mAb with recombinant ICAM-R; type: cell-based, human; conditions: in comparison to the HSA control
Description: T cell costimulation by recombinant ICAM-R and CD3 antibody in the presence of monoclonal antibodies which block ICAM-R adhesion to VLA-4 was measured (Example 21F). The monoclonal antibodies tested were specific for domain 3 of ICAM-R or the α4 subunit of VLA-4.
Both variants were tested for effects on T-cell proliferation in response to CD3 mAb. […] Similar levels of costimulation were induced by the LFA-1 binding D231H-Ig or wild-type ICAM-R/Ig chimera which binds both LFA-1 and VLA-4.

[5] = biological target: VLA-4 (Homo sapiens, UniProt P05556+P13612); assay: Integrin binding of ICAM-R/IgG variants
[6] = biological target: LFA-1 (Homo sapiens, UniProt P05107+P20701); assay: Integrin binding of ICAM-R/IgG variants
[7] = biological target: T1, ICAM-R; assay: Blocking of biotinylated murine ICR-8.1 binding
Text: However, antibodies containing the humanized heavy chain with the Ile2 mutation show an approximate 2-fold improvement in binding over the aforementioned antibodies. In experiments in blocking the binding of biotinylated murine ICR-8.1 to ICAM-R, the miHu/VHI/HuVK and miHuVHI/MuVK antibodies compete about 2-fold less well than the murine antibody itself.

[8] = biological target: T2, αd/CD18 transfected CHO cells (Homo sapiens, UniProt P05107+Q13349); assay: Binding of transfected CHO cells to immobilized chimeras; type: cell-based; conditions: immobilized chimera
T2 construct: expressed in transfected cells; host or cells: CHO cells
Description: In replicate assays, soluble ICAM-1, ICAM-R, or VCAM-1 IgG1 chimeric fusion proteins were immobilized on plastic and the ability of αd/CD18 or LFA-1 transfected CHO cells (see co-owned, concurrently filed U.S. patent application Ser. No. 08/286,889 identified as attorney docket No. 32168) to bind the immobilized ligand was determined. Transfected cells were labeled internally with calcein, washed in binding buffer (RPMI with 1% BSA), and incubated in either buffer only (with or without 10 ng/ml PMA) or buffer with anti-CD18 at 10 μg/ml. Transfected cells were added to 96-well Immulon 4 microtiter plates previously coated with soluble ICAM-1/Ig, ICAM-R/Ig or VCAM-1/Ig chimera, or bovine serum albumin (BSA) as a negative control. Wells were blocked with 1% BSA in PBS prior to addition of labeled cells. After washing the plates by immersion in PBS with 0.1% BSA for 20 minutes, total fluorescence remaining in each well was measured using a Cytofluor 2300 (Millipore, Milford, Mass.).

[9] = biological target: T2, αd/CD18 transfected CHO cells; assay: Flow cytometry binding of soluble chimeras; conditions: chimera 5 μg/ml
Description: Binding of αd/CD18-transfected cells to soluble ICAM-1/IgG, ICAM-R/IgG, or VCAM-1/IgG chimeras was determined by flow cytometry. Approximately one million αd/CD18-transfected CHO cells (grown in spinner flasks for higher expression) per measurement were suspended in 100 μl binding buffer (RPMI and 1% BSA) with or without 10 μg/ml anti-CD18 antibody. After a 20 minute incubation at room temperature, the cells were washed in binding buffer and soluble ICAM-1/IgG or ICAM-R/IgG chimera was added to a final concentration of 5 μg/ml. Binding was allowed to proceed for 30 minute at 37° C., after which the cells were washed three times and resuspended in 100 μl binding buffer containing FITC-conjugated sheep anti-human IgG1 at a 1:100 dilution. After a 30 minute incubation, samples were washed three times and suspended in 200 μl binding buffer for analysis with a Becton Dickinson FACScan.

T2 sequence (Q13349 18-1161): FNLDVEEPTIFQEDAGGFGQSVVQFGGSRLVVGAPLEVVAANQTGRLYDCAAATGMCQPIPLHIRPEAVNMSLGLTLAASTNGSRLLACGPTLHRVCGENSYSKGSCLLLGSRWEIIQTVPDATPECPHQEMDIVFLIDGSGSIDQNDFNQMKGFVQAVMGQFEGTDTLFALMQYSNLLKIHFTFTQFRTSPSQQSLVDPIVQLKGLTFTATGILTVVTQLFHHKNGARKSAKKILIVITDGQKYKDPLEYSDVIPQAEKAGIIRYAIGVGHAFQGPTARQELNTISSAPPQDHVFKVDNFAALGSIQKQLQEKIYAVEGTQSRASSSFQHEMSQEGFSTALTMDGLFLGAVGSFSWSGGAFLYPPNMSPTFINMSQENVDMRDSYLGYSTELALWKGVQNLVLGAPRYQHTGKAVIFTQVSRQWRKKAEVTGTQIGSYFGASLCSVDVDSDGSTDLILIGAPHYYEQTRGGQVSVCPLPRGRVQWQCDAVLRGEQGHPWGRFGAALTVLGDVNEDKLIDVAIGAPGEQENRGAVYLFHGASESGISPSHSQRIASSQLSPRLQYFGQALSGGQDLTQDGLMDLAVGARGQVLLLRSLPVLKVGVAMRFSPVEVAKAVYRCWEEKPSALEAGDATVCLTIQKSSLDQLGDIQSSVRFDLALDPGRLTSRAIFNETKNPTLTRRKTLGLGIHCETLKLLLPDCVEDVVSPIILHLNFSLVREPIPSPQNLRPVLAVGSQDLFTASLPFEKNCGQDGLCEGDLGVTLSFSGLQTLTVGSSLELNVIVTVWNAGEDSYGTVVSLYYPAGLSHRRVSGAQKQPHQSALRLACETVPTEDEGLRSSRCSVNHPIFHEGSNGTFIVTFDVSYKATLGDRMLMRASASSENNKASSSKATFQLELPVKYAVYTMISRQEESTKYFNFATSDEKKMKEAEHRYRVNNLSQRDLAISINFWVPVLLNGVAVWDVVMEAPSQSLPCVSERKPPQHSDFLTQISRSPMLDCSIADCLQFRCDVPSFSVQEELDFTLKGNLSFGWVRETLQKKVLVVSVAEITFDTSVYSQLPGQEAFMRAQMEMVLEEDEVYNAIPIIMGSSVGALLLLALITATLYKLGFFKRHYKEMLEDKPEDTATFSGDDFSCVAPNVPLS
T2 sequence (P05107 23-769): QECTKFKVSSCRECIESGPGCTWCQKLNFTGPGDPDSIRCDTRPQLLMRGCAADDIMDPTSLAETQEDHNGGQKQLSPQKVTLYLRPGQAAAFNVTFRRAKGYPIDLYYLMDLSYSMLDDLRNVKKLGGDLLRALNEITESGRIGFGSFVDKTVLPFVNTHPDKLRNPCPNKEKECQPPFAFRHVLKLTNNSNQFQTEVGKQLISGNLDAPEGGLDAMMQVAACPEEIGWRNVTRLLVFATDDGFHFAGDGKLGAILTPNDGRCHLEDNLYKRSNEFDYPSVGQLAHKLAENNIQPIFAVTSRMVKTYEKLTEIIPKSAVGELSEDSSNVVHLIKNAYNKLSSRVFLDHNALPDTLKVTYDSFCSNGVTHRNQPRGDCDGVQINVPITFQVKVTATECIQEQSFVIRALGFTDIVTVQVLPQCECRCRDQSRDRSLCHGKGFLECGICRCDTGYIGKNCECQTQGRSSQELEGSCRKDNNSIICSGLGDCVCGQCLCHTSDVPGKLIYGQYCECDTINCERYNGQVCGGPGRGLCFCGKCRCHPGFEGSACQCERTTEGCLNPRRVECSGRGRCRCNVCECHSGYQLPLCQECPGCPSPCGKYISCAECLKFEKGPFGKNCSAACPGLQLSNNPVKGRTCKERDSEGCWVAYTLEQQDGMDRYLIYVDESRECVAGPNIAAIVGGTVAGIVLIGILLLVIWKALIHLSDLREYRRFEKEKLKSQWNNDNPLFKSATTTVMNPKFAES
LFA-1, sequence (P20701 26-1170): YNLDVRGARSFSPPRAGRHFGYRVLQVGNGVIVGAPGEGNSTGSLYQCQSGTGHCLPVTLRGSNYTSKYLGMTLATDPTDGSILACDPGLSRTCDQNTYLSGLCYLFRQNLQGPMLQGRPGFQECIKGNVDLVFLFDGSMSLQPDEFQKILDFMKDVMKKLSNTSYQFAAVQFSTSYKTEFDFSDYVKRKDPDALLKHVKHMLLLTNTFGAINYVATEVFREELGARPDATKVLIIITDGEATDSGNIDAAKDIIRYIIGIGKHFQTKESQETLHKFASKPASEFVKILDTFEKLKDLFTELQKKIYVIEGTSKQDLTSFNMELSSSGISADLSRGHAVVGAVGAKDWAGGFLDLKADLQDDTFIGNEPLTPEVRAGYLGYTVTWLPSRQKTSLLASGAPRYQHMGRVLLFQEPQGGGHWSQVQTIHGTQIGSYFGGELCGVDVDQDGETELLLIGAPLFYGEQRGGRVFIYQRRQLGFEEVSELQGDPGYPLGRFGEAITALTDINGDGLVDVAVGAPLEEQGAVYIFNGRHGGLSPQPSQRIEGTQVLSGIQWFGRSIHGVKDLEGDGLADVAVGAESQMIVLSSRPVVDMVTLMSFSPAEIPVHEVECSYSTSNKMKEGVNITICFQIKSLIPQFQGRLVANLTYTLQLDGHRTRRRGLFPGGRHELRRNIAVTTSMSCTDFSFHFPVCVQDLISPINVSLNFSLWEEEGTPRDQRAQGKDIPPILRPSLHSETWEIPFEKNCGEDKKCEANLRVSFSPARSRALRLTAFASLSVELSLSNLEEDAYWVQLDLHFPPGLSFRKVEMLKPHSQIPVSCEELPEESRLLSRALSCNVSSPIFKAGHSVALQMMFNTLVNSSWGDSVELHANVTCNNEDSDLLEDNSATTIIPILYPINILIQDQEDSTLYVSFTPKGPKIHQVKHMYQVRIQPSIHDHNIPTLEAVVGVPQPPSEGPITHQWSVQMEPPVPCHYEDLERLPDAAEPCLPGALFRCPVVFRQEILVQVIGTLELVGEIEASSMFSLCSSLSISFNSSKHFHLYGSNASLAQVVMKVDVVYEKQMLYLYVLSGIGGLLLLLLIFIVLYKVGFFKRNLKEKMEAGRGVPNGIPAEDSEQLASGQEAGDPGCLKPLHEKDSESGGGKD
LFA-1, sequence (P05107 23-769): as the sequence (P05107 23-769) above

Molecule	IL-2 production in response to CD3 mAb [3]	T-cell proliferation in response to CD3 mAb [4]	VLA-4 binding [5]	LFA-1 binding [6]	further results
B1	enhanced IL-2 production				adhesion of SKW3 cells to plate bound protein [1]: demonstrated adhesion of phorbol ester-activated lymphocytes; expression of activation antigens ICAM-1, IL-2 receptor, transferrin receptor ([2]; 4 days, plate bound anti-CD3 0.5 ug/well and protein 100 ng/well, versus anti-CD3 alone): elevated levels of the activation antigens ICAM-1, IL-2 receptor and transferrin receptor; expression of activation antigens ICAM-1, IL-2 receptor, transferrin receptor ([2]; protein 100 ng/well alone, versus media alone): no increased levels of these activation antigens
B2	to a lesser extent	enhanced CD3 mAb driven T-cell proliferation	reduced VLA-4 binding capacity	retaining full LFA-1 binding capacity	
B3	inhibited IL-2 production	markedly inhibited T-cell proliferation	binds VLA-4	not LFA-1	
B4					compete less well than murine ICR-8.1 in blocking binding of biotinylated murine ICR-8.1 [7]: about 2 fold
B5					increase in binding of αd/CD18 co-transfectants over BSA coated wells [8]: No detectable binding; αd/CD18 transfectants binding soluble chimera [9]: no binding
